Target: cynomolgus GITR (cyGITR), soluble analyte (cynomolgus)
Assay: SPR (Biacore T200), 37 C; antibody captured on anti-human Fc chip, GITR as analyte; 1:1 Langmuir fit

B1: h3G7 H1 (antibody, V domains shown)
VH: EVQLVESGGGLVQPGGSLRLSCAASGFTFSDYTMNWVRQAPGKGLEWVALINPYNGGIRYNQKFKGRFTISRDNAKNSLYLQMNSLRAEDTAVYYCARIGGYYDSMDYWGQGTLVTVSS
VL: DIQMTQSPSSLSASVGDRVTITCRASESVDNFGINFLNWYQQKPGKAPKLLIYAASNQGSGVPSRFSGSGSGTDFTLTISSLQPEDFATYYCQQSKELPWTFGGGTKVEIK
B1 was tested, and the Kd was > 100 nM, the koff was 0.078 s⁻¹ and the t1/2 was 9 s.

Reference: patent US20200031947A1
